Experimental data reported in US20240255522A1.

Key:
Settings in all cases: modification not given
[1] = target: HLA-DRB1*09:01 MHCII molecule (human); assay: competition ELISA; 50 nM huCLIP-bio
[2] = target: HLA-DRB1*15:01 MHCII molecule (human); assay: competition ELISA; 50 nM huCLIP-bio
[3] = target: HLA-DRB1*08:01 MHCII molecule (human); assay: competition ELISA; 50 nM huCLIP-bio
[4] = target: HLA-DRB1*04:01 MHCII molecule (human); assay: competition ELISA; 50 nM huCLIP-bio
[5] = target: HLA-DRB1*11:01 MHCII molecule (human); assay: competition ELISA; 50 nM huCLIP-bio
[6] = target: HLA-DRB1*09:01 MHCII molecule (human); assay: competition ELISA; 25 nM huCLIP-bio
[7] = target: HLA-DRB1*15:01 MHCII molecule (human); assay: competition ELISA; 25 nM huCLIP-bio
[8] = target: HLA-DRB1*08:01 MHCII molecule (human); assay: competition ELISA; 25 nM huCLIP-bio
[9] = target: HLA-DRB1*04:01 MHCII molecule (human); assay: competition ELISA; 25 nM huCLIP-bio
[10] = target: HLA-DRB1*11:01 MHCII molecule (human); assay: competition ELISA; 25 nM huCLIP-bio

B1: mCLIP (peptide)
chain: PVSQMRMATPLLMRP
Q: With B1 as the binder, how does the IC50 [1] read?
A: The IC50 was 60.7 nM.

Q: What about the IC50 [2] of the same binder?
A: The IC50 was 46.1 nM.

Q: What about the IC50 [3] of the same binder?
A: The IC50 was 69.4 nM.

Q: What about the IC50 [4] of the same binder?
A: The IC50 was 36.5 nM.

Q: And the IC50 [5]?
A: The IC50 was 36.8 nM.

Q: What about the IC50 [6] of the same binder?
A: Its IC50 is 25 nM.

Q: What about the IC50 [7] of the same binder?
A: Its IC50 is 14.6 nM.

Q: What about the IC50 [8] of the same binder?
A: Its IC50 is 36.6 nM.

Q: And the IC50 [9]?
A: The IC50 was 31.2 nM.

Q: What about the IC50 [10] of the same binder?
A: Its IC50 is 22.6 nM.
